Measurements taken from publication PMC10786891, “Massively parallel profiling of RNA-targeting CRISPR-Cas13d”.

T1: EsCas13d, nuclease-dead (Eubacterium siraeum, UniProt B0MS50, R295A;H300A;R849A;H854A)
T1 sequence: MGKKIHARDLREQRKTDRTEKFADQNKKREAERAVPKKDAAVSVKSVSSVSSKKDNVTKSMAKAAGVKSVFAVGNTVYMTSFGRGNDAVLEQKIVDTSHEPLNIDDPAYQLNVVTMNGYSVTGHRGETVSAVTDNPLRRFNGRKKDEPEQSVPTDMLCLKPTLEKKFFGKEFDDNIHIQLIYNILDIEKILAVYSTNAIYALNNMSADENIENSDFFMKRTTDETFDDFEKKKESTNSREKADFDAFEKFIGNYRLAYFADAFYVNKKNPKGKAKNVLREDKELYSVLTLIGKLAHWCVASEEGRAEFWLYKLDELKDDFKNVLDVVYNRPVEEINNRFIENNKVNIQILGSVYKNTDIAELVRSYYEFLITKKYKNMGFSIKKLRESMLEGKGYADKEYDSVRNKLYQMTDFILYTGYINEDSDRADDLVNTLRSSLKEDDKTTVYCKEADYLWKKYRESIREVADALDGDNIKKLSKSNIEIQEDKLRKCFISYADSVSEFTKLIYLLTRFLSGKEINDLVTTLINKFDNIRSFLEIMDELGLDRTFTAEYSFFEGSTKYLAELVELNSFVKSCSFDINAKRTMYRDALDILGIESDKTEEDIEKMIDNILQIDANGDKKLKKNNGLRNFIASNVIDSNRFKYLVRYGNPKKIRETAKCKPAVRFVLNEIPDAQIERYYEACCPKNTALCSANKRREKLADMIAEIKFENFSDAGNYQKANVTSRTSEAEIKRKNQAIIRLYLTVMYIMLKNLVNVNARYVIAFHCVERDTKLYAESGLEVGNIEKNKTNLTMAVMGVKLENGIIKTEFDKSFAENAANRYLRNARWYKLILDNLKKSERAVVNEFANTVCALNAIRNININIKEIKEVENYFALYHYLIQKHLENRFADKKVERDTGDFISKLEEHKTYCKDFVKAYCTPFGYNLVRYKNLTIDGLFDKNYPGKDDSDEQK


Target: T1, EsCas13d, nuclease-dead
Test: crRNA (strand 1, pre-loaded); Mg2+; 40 mM Tris-HCl pH 7.5, 150 mM NaCl, 6 mM MgCl2, 1 mM DTT, 0.1% Tween-20, 0.2 mg/ml BSA; 25 C; 10 min per concentration, then washed
Details: tags: His6-TwinStrep-SUMO cleaved; N-terminal SNAP kept (SNAP-Surface 488); label: 3' end held by stalled T7 RNA polymerase

| Binder | Kd [nM] |
| --- | --- |
| target 1 insU 3' of 20,insA 3' of 12 (mixed) RNA 1: CACCCGUGCAAAAAUGCAGGGGUCUAAAACUGAGCGGAUAACCUCUCUAUGG RNA 2: GGGAAUGGAUCCACAUCUACGAAUUCGUACCAUUAGAGAGGAUUAUCCGCUCACCGAGAUCGGAAGAGCACACGU | 33.3 ± 2.5 |
| target 1 insU 3' of 21,insA 3' of 5 (mixed) RNA 1: CACCCGUGCAAAAAUGCAGGGGUCUAAAACUGAGCGGAUAACCUCUCUAUGG RNA 2: GGGAAUGGAUCCACAUCUACGAAUUCGUACCUAUAGAGAGGUUAUCCGACUCACCGAGAUCGGAAGAGCACACGU | 28 ± 6 |
| target 1 U10A,G12U (mixed) RNA 1: CACCCGUGCAAAAAUGCAGGGGUCUAAAACUGAGCGGAUAACCUCUCUAUGG RNA 2: GGGAAUGGAUCCACAUCUACGAAUUCGUACCAUAGAGAGUUAAUCCGCUCACCGAGAUCGGAAGAGCACACGU | 8.6 ± 0.8 |
| target 1 U10C,G15A (mixed) RNA 1: CACCCGUGCAAAAAUGCAGGGGUCUAAAACUGAGCGGAUAACCUCUCUAUGG RNA 2: GGGAAUGGAUCCACAUCUACGAAUUCGUACCAUAGAAAGGUCAUCCGCUCACCGAGAUCGGAAGAGCACACGU | 31.3 ± 1.3 |
| target 1 A9C,G12C (mixed) RNA 1: CACCCGUGCAAAAAUGCAGGGGUCUAAAACUGAGCGGAUAACCUCUCUAUGG RNA 2: GGGAAUGGAUCCACAUCUACGAAUUCGUACCAUAGAGAGCUUCUCCGCUCACCGAGAUCGGAAGAGCACACGU | 23.1 ± 2.1 |
| target 1 insA 3' of 19,insG 3' of 19 (mixed) RNA 1: CACCCGUGCAAAAAUGCAGGGGUCUAAAACUGAGCGGAUAACCUCUCUAUGG RNA 2: GGGAAUGGAUCCACAUCUACGAAUUCGUACCAUAGAGAGAGGUUAUCCGCUCACCGAGAUCGGAAGAGCACACGU | 8.62 ± 0.31 |
| target 1 G5U,G15A (mixed) RNA 1: CACCCGUGCAAAAAUGCAGGGGUCUAAAACUGAGCGGAUAACCUCUCUAUGG RNA 2: GGGAAUGGAUCCACAUCUACGAAUUCGUACCAUAGAAAGGUUAUCCUCUCACCGAGAUCGGAAGAGCACACGU | 16.5 ± 1.3 |
| target 1 C2G,C21A (mixed) RNA 1: CACCCGUGCAAAAAUGCAGGGGUCUAAAACUGAGCGGAUAACCUCUCUAUGG RNA 2: GGGAAUGGAUCCACAUCUACGAAUUCGUACAAUAGAGAGGUUAUCCGCUGACCGAGAUCGGAAGAGCACACGU | 36 ± 8 |
| target 1 insU 3' of 6,insA 3' of 6 (mixed) RNA 1: CACCCGUGCAAAAAUGCAGGGGUCUAAAACUGAGCGGAUAACCUCUCUAUGG RNA 2: GGGAAUGGAUCCACAUCUACGAAUUCGUACCAUAGAGAGGUUAUCCUAGCUCACCGAGAUCGGAAGAGCACACGU | 13.8 ± 1.3 |
| target 1 C4G,G5A (mixed) RNA 1: CACCCGUGCAAAAAUGCAGGGGUCUAAAACUGAGCGGAUAACCUCUCUAUGG RNA 2: GGGAAUGGAUCCACAUCUACGAAUUCGUACCAUAGAGAGGUUAUCCAGUCACCGAGAUCGGAAGAGCACACGU | 83 ± 17 |
| target 1 A9U,G17C (mixed) RNA 1: CACCCGUGCAAAAAUGCAGGGGUCUAAAACUGAGCGGAUAACCUCUCUAUGG RNA 2: GGGAAUGGAUCCACAUCUACGAAUUCGUACCAUACAGAGGUUUUCCGCUCACCGAGAUCGGAAGAGCACACGU | ~90 |
| target 1 insU 3' of 21,insU 3' of 5 (mixed) RNA 1: CACCCGUGCAAAAAUGCAGGGGUCUAAAACUGAGCGGAUAACCUCUCUAUGG RNA 2: GGGAAUGGAUCCACAUCUACGAAUUCGUACCUAUAGAGAGGUUAUCCGUCUCACCGAGAUCGGAAGAGCACACGU | 34 ± 7 |
| target 1 del8,del18 (mixed) RNA 1: CACCCGUGCAAAAAUGCAGGGGUCUAAAACUGAGCGGAUAACCUCUCUAUGG RNA 2: GGGAAUGGAUCCACAUCUACGAAUUCGUACCAUGAGAGGUUACCGCUCACCGAGAUCGGAAGAGCACACGU | 75 ± 10 |
